Assay results from the RNAGym collection of RNA variant scans (doi:10.7554/elife.80360).

B1: Twister Ribozyme (parent)
chain: AACACUGCCAAUGCCGGUCCCAAGCCCGGAUAAAAGUGGAGGGGGCGG

Variants of: B1
Assay: self-cleavage, relative activity (ratio to wild type); higher = more cleavage; co-transcriptional
For A1U C19U, the self-cleavage was 0.0395.
In the case of A1U C20G, the self-cleavage is reported as 0.112.
Variant A1U C20U has a self-cleavage of 0.0599.
For A1U C21A, the self-cleavage was 0.0801.
Work on A1U C25G yielded a self-cleavage of 0.0576.
In the case of A1U C25U, the self-cleavage is reported as 0.0883.
Variant A1U C26A has a self-cleavage of 0.086.
In the case of A1U C27G, the self-cleavage is reported as 0.0626.
Variant A1U C27U has a self-cleavage of 0.0591.
A1U C46A gave a self-cleavage of 0.0731.
In the case of A1U C46G, the self-cleavage is reported as 0.0557.
In the case of A1U G7A, the self-cleavage is reported as 0.0601.
In the case of A1U G7U, the self-cleavage is reported as 0.059.
A1U G13A showed a self-cleavage of 0.0679.
Variant A1U G13C has a self-cleavage of 0.0521.
Variant A1U G13U has a self-cleavage of 0.0563.
For A1U G16A, the self-cleavage was 0.0911.
With A1U G16C the self-cleavage was 0.0739.
With A1U G17A the self-cleavage was 0.0711.
For A1U G24C, the self-cleavage was 0.0779.
In the case of A1U G24U, the self-cleavage is reported as 0.0764.
For A1U G28A, the self-cleavage was 0.0517.
A1U G29C gave a self-cleavage of 0.0876.
A1U G29U gave a self-cleavage of 0.0849.
Variant A1U G36C has a self-cleavage of 0.0449.
In the case of A1U G36U, the self-cleavage is reported as 0.0701.
With A1U G38A the self-cleavage was 0.0686.
Variant A1U G38C has a self-cleavage of 0.0576.
Variant A1U G39U has a self-cleavage of 0.0746.
Variant A1U G41A has a self-cleavage of 0.0475.
A1U G41C gave a self-cleavage of 0.0395.
Variant A1U G41U has a self-cleavage of 0.0585.
A1U G42C gave a self-cleavage of 0.0572.
A1U G43A gave a self-cleavage of 0.0467.
In the case of A1U G43U, the self-cleavage is reported as 0.0499.
A1U G44A showed a self-cleavage of 0.0502.
In the case of A1U G45A, the self-cleavage is reported as 0.0481.
A1U G47C gave a self-cleavage of 0.068.
A1U U6A gave a self-cleavage of 0.0513.
Variant A1U U6C has a self-cleavage of 0.0726.
With A1U U6G the self-cleavage was 0.107.
For A1U U31C, the self-cleavage was 0.0703.
A1U U37C showed a self-cleavage of 0.0822.
Work on A2C A10G yielded a self-cleavage of 0.151.
A2C A11C showed a self-cleavage of 0.0419.
Work on A2C A11U yielded a self-cleavage of 0.108.
For A2C A23G, the self-cleavage was 0.06.
For A2C A23U, the self-cleavage was 0.0734.
A2C A30G showed a self-cleavage of 0.105.
In the case of A2C A30U, the self-cleavage is reported as 0.0662.
In the case of A2C A32C, the self-cleavage is reported as 0.1.
Work on A2C A32G yielded a self-cleavage of 0.0723.
A2C A32U showed a self-cleavage of 0.101.
A2C A34C showed a self-cleavage of 0.108.
With A2C A34U the self-cleavage was 0.0746.
A2C A35U showed a self-cleavage of 0.0477.
For A2C A40C, the self-cleavage was 0.07.
For A2C A40G, the self-cleavage was 0.059.
For A2C A40U, the self-cleavage was 0.0387.
Work on A2C C3A yielded a self-cleavage of 0.101.
A2C C3U showed a self-cleavage of 0.0628.
A2C C5A showed a self-cleavage of 0.0506.
A2C C5G showed a self-cleavage of 0.0784.
For A2C C8A, the self-cleavage was 0.0745.
Variant A2C C8U has a self-cleavage of 0.0384.
A2C C9A gave a self-cleavage of 0.0489.
Work on A2C C9G yielded a self-cleavage of 0.0449.
With A2C C14A the self-cleavage was 0.0856.
Work on A2C C14G yielded a self-cleavage of 0.0512.
With A2C C15A the self-cleavage was 0.051.
For A2C C15G, the self-cleavage was 0.0398.
With A2C C19U the self-cleavage was 0.0609.
A2C C20A showed a self-cleavage of 0.0642.
Variant A2C C20U has a self-cleavage of 0.0643.
For A2C C21A, the self-cleavage was 0.0892.
With A2C C25G the self-cleavage was 0.0416.
For A2C C25U, the self-cleavage was 0.0669.
A2C C26A gave a self-cleavage of 0.0536.
Work on A2C C26U yielded a self-cleavage of 0.0792.
For A2C C27G, the self-cleavage was 0.0549.
For A2C C27U, the self-cleavage was 0.0597.
In the case of A2C G7A, the self-cleavage is reported as 0.0438.
A2C G7C showed a self-cleavage of 0.0586.
Work on A2C G13A yielded a self-cleavage of 0.0468.
With A2C G16A the self-cleavage was 0.116.
For A2C G17C, the self-cleavage was 0.0357.
A2C G24C showed a self-cleavage of 0.0423.
For A2C G24U, the self-cleavage was 0.0478.
A2C G28C showed a self-cleavage of 0.0792.
With A2C G28U the self-cleavage was 0.0994.
Work on A2C G29A yielded a self-cleavage of 0.0998.
Variant A2C G29C has a self-cleavage of 0.0975.
A2C G29U gave a self-cleavage of 0.0781.
For A2C G36C, the self-cleavage was 0.0351.
Work on A2C G38A yielded a self-cleavage of 0.102.
With A2C G38C the self-cleavage was 0.0461.
A2C G38U showed a self-cleavage of 0.0613.
In the case of A2C G39A, the self-cleavage is reported as 0.0656.
Work on A2C G39C yielded a self-cleavage of 0.105.
With A2C G44A the self-cleavage was 0.107.
In the case of A2C G44U, the self-cleavage is reported as 0.0787.
A2C G45U gave a self-cleavage of 0.0774.
Variant A2C G47A has a self-cleavage of 0.0858.
For A2C G47C, the self-cleavage was 0.0493.
A2C G47U showed a self-cleavage of 0.0503.
Variant A2C G48A has a self-cleavage of 0.0475.
A2C G48U gave a self-cleavage of 0.0976.
In the case of A2C U6C, the self-cleavage is reported as 0.0549.
Work on A2C U12G yielded a self-cleavage of 0.0824.
Variant A2C U31A has a self-cleavage of 0.0563.
Work on A2C U31C yielded a self-cleavage of 0.0894.
Work on A2C U37A yielded a self-cleavage of 0.0604.
A2C U37C showed a self-cleavage of 0.0354.
In the case of A2G A4C, the self-cleavage is reported as 0.0432.
A2G A4U gave a self-cleavage of 0.117.
A2G A10C gave a self-cleavage of 0.322.
Variant A2G A10G has a self-cleavage of 0.312.
In the case of A2G A11G, the self-cleavage is reported as 0.164.
Variant A2G A22C has a self-cleavage of 0.129.
A2G A22G showed a self-cleavage of 0.107.
In the case of A2G A22U, the self-cleavage is reported as 0.133.
Work on A2G A30G yielded a self-cleavage of 0.399.
Work on A2G A32C yielded a self-cleavage of 0.414.
In the case of A2G A32G, the self-cleavage is reported as 0.317.
Variant A2G A32U has a self-cleavage of 0.401.
In the case of A2G A33C, the self-cleavage is reported as 0.503.
Variant A2G A33G has a self-cleavage of 0.442.
In the case of A2G A33U, the self-cleavage is reported as 0.401.
Variant A2G A34U has a self-cleavage of 0.166.
A2G A35C showed a self-cleavage of 0.308.
A2G A40C gave a self-cleavage of 0.138.
For A2G A40G, the self-cleavage was 0.0967.
With A2G A40U the self-cleavage was 0.107.
A2G C3U gave a self-cleavage of 0.0609.
With A2G C5A the self-cleavage was 0.0588.
A2G C5G gave a self-cleavage of 0.144.
A2G C5U showed a self-cleavage of 0.153.
In the case of A2G C9G, the self-cleavage is reported as 0.0579.
A2G C14G gave a self-cleavage of 0.136.
In the case of A2G C14U, the self-cleavage is reported as 0.275.
A2G C19A gave a self-cleavage of 0.0723.
For A2G C20A, the self-cleavage was 0.0649.
A2G C20G showed a self-cleavage of 0.0997.
In the case of A2G C20U, the self-cleavage is reported as 0.115.
Variant A2G C21A has a self-cleavage of 0.0688.
A2G C21G showed a self-cleavage of 0.215.
For A2G C25U, the self-cleavage was 0.128.
A2G C27G gave a self-cleavage of 0.138.
A2G C27U gave a self-cleavage of 0.218.
Variant A2G C46U has a self-cleavage of 0.416.
A2G G7A showed a self-cleavage of 0.07.
Work on A2G G7C yielded a self-cleavage of 0.087.
A2G G16A showed a self-cleavage of 0.208.
Variant A2G G16U has a self-cleavage of 0.301.
A2G G17U showed a self-cleavage of 0.0694.
Work on A2G G24U yielded a self-cleavage of 0.0773.
Work on A2G G28C yielded a self-cleavage of 0.241.
A2G G28U showed a self-cleavage of 0.286.
In the case of A2G G29A, the self-cleavage is reported as 0.214.
With A2G G29C the self-cleavage was 0.188.
With A2G G29U the self-cleavage was 0.344.
Work on A2G G36C yielded a self-cleavage of 0.105.
A2G G36U showed a self-cleavage of 0.0889.
In the case of A2G G38U, the self-cleavage is reported as 0.125.
In the case of A2G G39A, the self-cleavage is reported as 0.143.
A2G G41C showed a self-cleavage of 0.141.
In the case of A2G G42C, the self-cleavage is reported as 0.157.
